Experiments:
[1] = target: RAD52 (untagged, pET11a);DSS1 (Homo sapiens;Homo sapiens, UniProt P43351;P60896 1-418;1-70, |); assay: stopped-flow fluorescence; 1:1 complex; sign change at 0.1-0.25 uM; ssDNA EMSA: 30 mM Tris-acetate pH 7.5, 1 mM DTT, RT, 0.1% glutaraldehyde; FRET: same buffer + 0.1 mg/ml BSA, 25 C; dsDNA EMSA: 30 mM KPi pH 7.4, 1 mM DTT, 0.01; conditions: protein: recombinant;recombinant; tags: none;GST removed by thrombin; label: Cy3; single strand
RAD52 (untagged, pET11a) = target: T1, RAD52 (untagged, pET11a) (Homo sapiens, UniProt P43351 1-418); assay: stopped-flow fluorescence; 0.05-2.0 uM RAD52; smaller amplitude, lower affinity than with DSS1; sign change at ~0.5 uM; ssDNA EMSA: 30 mM Tris-acetate pH 7.5, 1 mM DTT, RT, 0.1% glutaraldehyde; FRET: same buffer + 0.1 mg/ml BSA, 25 C; dsDNA EMSA: 30 mM KPi pH 7.4, 1 mM DTT, 0.01; conditions: protein: recombinant; tags: none; label: Cy3; single strand
T1 sequence: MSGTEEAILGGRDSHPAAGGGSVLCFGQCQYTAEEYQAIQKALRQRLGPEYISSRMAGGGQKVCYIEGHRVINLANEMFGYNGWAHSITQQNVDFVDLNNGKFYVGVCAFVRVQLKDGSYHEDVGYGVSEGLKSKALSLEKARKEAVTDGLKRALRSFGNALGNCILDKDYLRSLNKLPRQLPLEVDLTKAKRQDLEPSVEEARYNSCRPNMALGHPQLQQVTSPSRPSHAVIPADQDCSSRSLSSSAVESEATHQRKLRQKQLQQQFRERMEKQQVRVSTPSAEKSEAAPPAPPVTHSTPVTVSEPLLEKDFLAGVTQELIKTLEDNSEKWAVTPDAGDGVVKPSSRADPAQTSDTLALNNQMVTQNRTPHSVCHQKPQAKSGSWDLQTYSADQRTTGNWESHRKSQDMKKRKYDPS

RAD52 (untagged, pET11a);DSS1, sequence (P60896 whole entry, one chain of several): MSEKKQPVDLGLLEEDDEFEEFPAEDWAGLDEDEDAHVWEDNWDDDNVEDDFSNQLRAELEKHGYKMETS

**Q.** What does the source list for TTTTTTTTTTTTTTTTTTTTTTTTTTTTTTTTT (ssDNA) [Cy3-dT33 (pR1255)]?
**A.** binding result [1]: binds; binding result (RAD52 (untagged, pET11a)): binds

Reference: PMC6954417, “DSS1 interacts with and stimulates RAD52 to promote the repair of DSBs”
